Data: publication PMC4361764, “TatBC-Independent TatA/Tat Substrate Interactions Contribute to Transport Efficiency” (PLoS ONE, 2015)

Target: the molecule itself
Assay: SEC; TatA-strep purified from the soluble fraction (Strep-Tactin), Superose 6, 10 mM Hepes pH 8.0, 150 mM NaCl, no detergent; Western blot of elution fractions

B1: Strep-tagged TatA from Escherichia coli (natural protein, UniProt P69428 1-89, looked up)
chain: MGGISIWQLLIIAVIVVLLFGTKKLGSIGSDLGASIKGFKKAMSDDEPKQDKTSQDADFTAKTIADKQADTNQEQAKTEDAKRHDKEQV
notes: TatA of Escherichia coli; The soluble form is a large association of many protomers; also called TatA-strep; soluble TatA-strep; source: E. coli DADE tatA-strep-tatBC (single-copy, wild-type level): in crude soluble extract; or purified from the soluble fraction (Strep-Tactin, Superose 6); not shown: Strep-tag, C-terminal, kept
binding result: binds
